Experimental data: article PMC5228132

Assays:
[1] = target: VdPG1 (Verticillium dahliae polygalacturonase 1) (Verticillium dahliae)
[2] = target: VdPG1 (Verticillium dahliae polygalacturonase 1) (Verticillium dahliae); remark: listed apart in the source
[3] = target: FovPG1 (Fusarium oxysporum f. sp. vasinfectum polygalacturonase 1) (Fusarium oxysporum f. sp. vasinfectum)

Substance: GhPGIP1 (cotton polygalacturonase-inhibiting protein 1) (natural protein)
- IC50 of inhibition; the text gives it for VdPG1, while the caption and footnote of Table 1 give it as antifungal activity on the growth of V. dahliae (eight doses of purified GhPGIP1) [1]: 44.4 µg/mL
- percent inhibition of PG activity by 3.24 nM GhPGIP1 over pH 3.5-5.0; 26.88% at pH 4.2 and 31.45% at pH 4.8 [2]: 31.4%
- percent inhibition of PG activity by 3.24 nM GhPGIP1 over pH 7.0-10.0; 23.79% at pH 8.0 and 29.61% at pH 9.0 [3]: 29.6%
